US20040166544A1
Each block holds one substance with its values, some of them ahead of it.

Key:
[1] = molecular target: c-Met (endogenous, on human cell lines 184B5, HCT-116, DU-145 and NCI H441) (human) (UniProt P08581); test: cell-based or functional assay
[2] = molecular target: c-Met/Fc Chimera (R&D Systems, catalog # 358-MT-100) (human) (UniProt P08581); test: competition ELISA: displacement of biotinylated HGF from plate-coated c-Met/Fc chimera, Fab, n = 2
[3] = molecular target: c-Met/Fc Chimera (R&D Systems, catalog # 358-MT-100) (human) (UniProt P08581); test: SPR (BIAcore), c-Met-Fc captured on protein A CM5 chip, Fab as analyte, 1:1 Langmuir model
[4] = molecular target: biotinylated c-Met-Fc (R&D Systems, #358-MT-100/CF, 5.1 biotin per c-Met molecule) (human) (UniProt P08581); test: SPR (BIAcore), biotinylated c-Met-Fc captured on streptavidin chip, IgG as analyte, bivalent model
biotinylated c-Met-Fc (R&D Systems, #358-MT-100/CF, 5.1 biotin per c-Met molecule) (human), sequence (P08581 25-932): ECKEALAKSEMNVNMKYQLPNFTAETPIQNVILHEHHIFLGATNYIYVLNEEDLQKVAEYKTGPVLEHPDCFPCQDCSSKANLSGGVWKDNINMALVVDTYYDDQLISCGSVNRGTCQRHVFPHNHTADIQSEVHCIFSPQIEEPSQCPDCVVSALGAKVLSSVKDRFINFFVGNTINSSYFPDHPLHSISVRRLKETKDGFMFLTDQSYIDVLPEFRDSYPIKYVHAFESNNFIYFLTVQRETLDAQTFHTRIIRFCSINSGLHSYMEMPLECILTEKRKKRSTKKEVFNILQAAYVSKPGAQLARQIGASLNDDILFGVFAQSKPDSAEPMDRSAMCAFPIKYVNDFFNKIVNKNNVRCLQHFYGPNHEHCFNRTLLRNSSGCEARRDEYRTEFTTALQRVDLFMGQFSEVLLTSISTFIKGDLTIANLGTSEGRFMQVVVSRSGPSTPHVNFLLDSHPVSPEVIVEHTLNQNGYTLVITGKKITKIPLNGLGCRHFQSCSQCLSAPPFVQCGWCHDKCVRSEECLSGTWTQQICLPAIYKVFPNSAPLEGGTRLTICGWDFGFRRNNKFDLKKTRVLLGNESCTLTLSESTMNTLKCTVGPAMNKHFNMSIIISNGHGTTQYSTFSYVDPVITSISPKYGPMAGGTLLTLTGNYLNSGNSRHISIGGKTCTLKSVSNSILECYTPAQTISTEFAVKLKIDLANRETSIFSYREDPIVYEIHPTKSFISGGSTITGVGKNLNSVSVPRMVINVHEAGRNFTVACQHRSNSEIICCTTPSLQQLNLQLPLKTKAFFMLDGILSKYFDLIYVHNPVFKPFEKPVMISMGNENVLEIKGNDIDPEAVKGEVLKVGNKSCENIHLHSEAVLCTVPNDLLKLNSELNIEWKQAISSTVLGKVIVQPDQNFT

[5] = molecular target: c-Met/Fc Chimera (R&D Systems, catalog # 358-MT-100) (human) (UniProt P08581); test: competition ELISA: displacement of biotinylated HGF from plate-coated c-Met/Fc chimera, IgG, n = 2

c-Met (endogenous, on human cell lines 184B5, HCT-116, DU-145 and NCI H441) (human), sequence (P08581 25-1390): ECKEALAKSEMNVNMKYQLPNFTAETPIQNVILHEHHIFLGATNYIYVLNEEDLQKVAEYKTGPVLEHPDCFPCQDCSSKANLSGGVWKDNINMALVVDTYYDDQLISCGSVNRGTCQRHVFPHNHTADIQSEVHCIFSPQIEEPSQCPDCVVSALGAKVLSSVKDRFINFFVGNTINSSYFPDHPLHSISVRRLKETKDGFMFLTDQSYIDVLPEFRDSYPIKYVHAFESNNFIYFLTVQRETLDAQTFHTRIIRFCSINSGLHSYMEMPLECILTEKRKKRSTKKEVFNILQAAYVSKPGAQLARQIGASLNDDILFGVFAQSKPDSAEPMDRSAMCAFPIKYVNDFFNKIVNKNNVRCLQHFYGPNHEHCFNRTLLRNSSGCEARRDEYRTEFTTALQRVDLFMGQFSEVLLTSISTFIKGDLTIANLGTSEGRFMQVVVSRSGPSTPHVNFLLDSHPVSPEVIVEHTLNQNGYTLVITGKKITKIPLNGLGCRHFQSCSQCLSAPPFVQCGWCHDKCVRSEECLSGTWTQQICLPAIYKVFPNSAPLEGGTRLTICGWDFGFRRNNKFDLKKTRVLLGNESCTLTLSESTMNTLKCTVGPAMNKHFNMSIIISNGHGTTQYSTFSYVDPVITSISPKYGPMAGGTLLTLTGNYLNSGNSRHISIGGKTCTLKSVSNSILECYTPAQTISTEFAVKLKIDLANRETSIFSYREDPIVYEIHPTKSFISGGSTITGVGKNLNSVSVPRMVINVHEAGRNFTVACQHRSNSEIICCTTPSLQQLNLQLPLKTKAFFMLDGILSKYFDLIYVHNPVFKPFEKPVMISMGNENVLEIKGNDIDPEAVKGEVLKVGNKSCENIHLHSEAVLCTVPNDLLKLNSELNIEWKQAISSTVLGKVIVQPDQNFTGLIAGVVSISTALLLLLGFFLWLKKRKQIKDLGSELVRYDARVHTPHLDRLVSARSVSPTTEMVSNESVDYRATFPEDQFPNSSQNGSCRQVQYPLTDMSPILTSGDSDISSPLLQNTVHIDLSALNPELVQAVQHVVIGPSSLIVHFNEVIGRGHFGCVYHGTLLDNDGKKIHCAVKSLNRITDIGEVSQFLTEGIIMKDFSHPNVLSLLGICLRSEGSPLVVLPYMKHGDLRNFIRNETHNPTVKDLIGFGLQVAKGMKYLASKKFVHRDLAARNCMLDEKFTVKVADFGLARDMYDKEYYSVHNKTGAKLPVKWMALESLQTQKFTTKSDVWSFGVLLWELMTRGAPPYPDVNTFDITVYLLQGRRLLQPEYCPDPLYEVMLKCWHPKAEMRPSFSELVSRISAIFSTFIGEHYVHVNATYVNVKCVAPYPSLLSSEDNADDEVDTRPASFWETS
c-Met/Fc Chimera (R&D Systems, catalog # 358-MT-100) (human), sequence (P08581 25-932, stated change not applied): as the sequence (P08581 25-932) above

Substance: HB-94 (#HB-94, ATCC Hybridoma) converted into a Fab fragment, Fab isotype control
scatter assay on DU-145 cells, mean object area, agonist (alone), 100 nM Fab; the smaller the number, the more scattering (mean object area) [1]: 592
scatter assay on DU-145 cells, mean object area, antagonist (w/30 pM HGF), 100 nM Fab; the smaller the number, the more scattering (mean object area) [1]: 478

Substance: c-Met antibody 1A3.3.13 (#HB-11894, ATCC Hybridoma), Fab
IC50 [2]: 6.83 nM
Kd [3]: 6.3 nM
koff [3]: 0.00313 s⁻¹
kon [3]: 497000 M⁻¹ s⁻¹
scatter assay on DU-145 cells, mean object area, agonist (alone), 100 nM Fab; the smaller the number, the more scattering (mean object area) [1]: 597
scatter assay on DU-145 cells, mean object area, antagonist (w/30 pM HGF), 100 nM Fab; the smaller the number, the more scattering (mean object area) [1]: 400

Substance: c-Met antibody 1A3.3.13 (#HB-11894, ATCC Hybridoma), IgG
Kd [4]: 1.4 nM
koff [4]: 0.000289 s⁻¹
kon [4]: 210000 M⁻¹ s⁻¹
IC50 [5]: 0.5 nM
scatter assay on DU-145 cells, mean object area, agonist (alone), 100 nM IgG; the smaller the number, the more scattering (mean object area) [1]: 305
scatter assay on DU-145 cells, mean object area, antagonist (w/30 pM HGF), 100 nM IgG; the smaller the number, the more scattering (mean object area) [1]: 254

Other lines, results leading:

scatter assay on DU-145 cells, mean object area, agonist (alone), 100 nM, IgG column; the smaller the number, the more scattering (mean object area) [1]: 365
scatter assay on DU-145 cells, mean object area, antagonist (w/30 pM HGF), 100 nM, IgG column; the smaller the number, the more scattering (mean object area) [1]: 199
Substance: HB94 (#HB-94, ATCC Hybridoma), IgG columns of Tables 9 and 10 (antibody)

IC50 [2]: 9.72 nM
Kd [3]: 1 nM
koff [3]: 0.000129 s⁻¹
kon [3]: 126000 M⁻¹ s⁻¹
scatter assay on DU-145 cells, mean object area, agonist (alone), 100 nM Fab; the smaller the number, the more scattering (mean object area) [1]: 632
scatter assay on DU-145 cells, mean object area, antagonist (w/30 pM HGF), 100 nM Fab; the smaller the number, the more scattering (mean object area) [1]: 592
Substance: c-Met antibody 5D5.11.6 (#HB-11895, ATCC Hybridoma), Fab

Kd [4]: 5.9 nM
koff [4]: 0.000406 s⁻¹
kon [4]: 68800 M⁻¹ s⁻¹
scatter assay on DU-145 cells, mean object area, agonist (alone), 100 nM IgG; the smaller the number, the more scattering (mean object area) [1]: 239
scatter assay on DU-145 cells, mean object area, antagonist (w/30 pM HGF), 100 nM IgG; the smaller the number, the more scattering (mean object area) [1]: 241
Substance: c-Met antibody 5D5.11.6 (#HB-11895, ATCC Hybridoma), IgG

scatter assay on DU-145 cells, mean object area, 30 pM HGF alone, IgG series; the smaller the number, the more scattering (mean object area) [1]: 324
scatter assay on DU-145 cells, mean object area, media alone with 30 pM HGF (no antibody or Fab), Fab series; the smaller the number, the more scattering (mean object area) [1]: 352
Substance: recombinant human HGF (rhHGF, R&D Systems) (from UniProt P14210 32-728) (ligand)
